In patent US20200087373A1 (UNIVERSITY OF COPENHAGEN, published 2020):
Ends that are not written are not given here. * marks the point of attachment. C18 diacid = O=C(O)CCCCCCCCCCCCCCCCC(=O)*; C16 diacid = O=C(O)CCCCCCCCCCCCCCC(=O)*; C14 diacid = O=C(O)CCCCCCCCCCCCC(=O)*; Stearoyl = CCCCCCCCCCCCCCCCCC(=O)*; Palmitoyl = CCCCCCCCCCCCCCCC(=O)*; Myristoyl = CCCCCCCCCCCCCC(=O)*; Lauroyl = CCCCCCCCCCCC(=O)*

B1: AT116 [hGIP(3-30)NH2-C12/18] (peptide)
peptide: EGTFISDYSIAMDKIK(Lauroyl)QQDFVNWLLAQK-NH2
modifications: N-terminus assumed
SMILES: CCCCCCCCCCCC(=O)NCCCC[C@H](NC(=O)[C@@H](NC(=O)[C@H](CCCCN)NC(=O)[C@H](CC(=O)O)NC(=O)[C@H](CCSC)NC(=O)[C@H](C)NC(=O)[C@@H](NC(=O)[C@H](CO)NC(=O)[C@H](Cc1ccc(O)cc1)NC(=O)[C@H](CC(=O)O)NC(=O)[C@H](CO)NC(=O)[C@@H](NC(=O)[C@H](Cc1ccccc1)NC(=O)[C@@H](NC(=O)CNC(=O)[C@@H](N)CCC(=O)O)[C@@H](C)O)[C@@H](C)CC)[C@@H](C)CC)[C@@H](C)CC)C(=O)N[C@@H](CCC(N)=O)C(=O)N[C@@H](CCC(N)=O)C(=O)N[C@@H](CC(=O)O)C(=O)N[C@@H](Cc1ccccc1)C(=O)N[C@H](C(=O)N[C@@H](CC(N)=O)C(=O)N[C@@H](Cc1c[nH]c2ccccc12)C(=O)N[C@@H](CC(C)C)C(=O)N[C@@H](CC(C)C)C(=O)N[C@@H](C)C(=O)N[C@@H](CCC(N)=O)C(=O)N[C@@H](CCCCN)C(N)=O)C(C)C
B2: AT117 [hGIP(3-30)NH2[H18K]-C16/18] (peptide)
peptide: EGTFISDYSIAMDKIK(Palmitoyl)QQDFVNWLLAQK-NH2
modifications: N-terminus assumed
SMILES: CCCCCCCCCCCCCCCC(=O)NCCCC[C@H](NC(=O)[C@@H](NC(=O)[C@H](CCCCN)NC(=O)[C@H](CC(=O)O)NC(=O)[C@H](CCSC)NC(=O)[C@H](C)NC(=O)[C@@H](NC(=O)[C@H](CO)NC(=O)[C@H](Cc1ccc(O)cc1)NC(=O)[C@H](CC(=O)O)NC(=O)[C@H](CO)NC(=O)[C@@H](NC(=O)[C@H](Cc1ccccc1)NC(=O)[C@@H](NC(=O)CNC(=O)[C@@H](N)CCC(=O)O)[C@@H](C)O)[C@@H](C)CC)[C@@H](C)CC)[C@@H](C)CC)C(=O)N[C@@H](CCC(N)=O)C(=O)N[C@@H](CCC(N)=O)C(=O)N[C@@H](CC(=O)O)C(=O)N[C@@H](Cc1ccccc1)C(=O)N[C@H](C(=O)N[C@@H](CC(N)=O)C(=O)N[C@@H](Cc1c[nH]c2ccccc12)C(=O)N[C@@H](CC(C)C)C(=O)N[C@@H](CC(C)C)C(=O)N[C@@H](C)C(=O)N[C@@H](CCC(N)=O)C(=O)N[C@@H](CCCCN)C(N)=O)C(C)C
B3: AT141 [hGIP(5-30)NH2-C18diacid/16] (peptide)
peptide: TFISDYSIAMDK(C18 diacid)IHQQDFVNWLLAQK-NH2
modifications: N-terminus assumed
SMILES: CC[C@H](C)[C@H](NC(=O)[C@H](CO)NC(=O)[C@H](Cc1ccc(O)cc1)NC(=O)[C@H](CC(=O)O)NC(=O)[C@H](CO)NC(=O)[C@@H](NC(=O)[C@H](Cc1ccccc1)NC(=O)[C@@H](N)[C@@H](C)O)[C@@H](C)CC)C(=O)N[C@@H](C)C(=O)N[C@@H](CCSC)C(=O)N[C@@H](CC(=O)O)C(=O)N[C@@H](CCCCNC(=O)CCCCCCCCCCCCCCCCC(=O)O)C(=O)N[C@H](C(=O)N[C@@H](Cc1c[nH]cn1)C(=O)N[C@@H](CCC(N)=O)C(=O)N[C@@H](CCC(N)=O)C(=O)N[C@@H](CC(=O)O)C(=O)N[C@@H](Cc1ccccc1)C(=O)N[C@H](C(=O)N[C@@H](CC(N)=O)C(=O)N[C@@H](Cc1c[nH]c2ccccc12)C(=O)N[C@@H](CC(C)C)C(=O)N[C@@H](CC(C)C)C(=O)N[C@@H](C)C(=O)N[C@@H](CCC(N)=O)C(=O)N[C@@H](CCCCN)C(N)=O)C(C)C)[C@@H](C)CC
B4: AT114 [hGIP(3-30)NH2-C18/16] (peptide)
peptide: EGTFISDYSIAMDK(Stearoyl)IHQQDFVNWLLAQK-NH2
B5: AT111 [hGIP(3-30)NH2-C14/16] (peptide)
peptide: EGTFISDYSIAMDK(Myristoyl)IHQQDFVNWLLAQK-NH2
B6: AT139 [hGIP(5-30)NH2-C14diacid/16] (peptide)
peptide: TFISDYSIAMDK(C14 diacid)IHQQDFVNWLLAQK-NH2
modifications: N-terminus assumed
SMILES: CC[C@H](C)[C@H](NC(=O)[C@H](CO)NC(=O)[C@H](Cc1ccc(O)cc1)NC(=O)[C@H](CC(=O)O)NC(=O)[C@H](CO)NC(=O)[C@@H](NC(=O)[C@H](Cc1ccccc1)NC(=O)[C@@H](N)[C@@H](C)O)[C@@H](C)CC)C(=O)N[C@@H](C)C(=O)N[C@@H](CCSC)C(=O)N[C@@H](CC(=O)O)C(=O)N[C@@H](CCCCNC(=O)CCCCCCCCCCCCC(=O)O)C(=O)N[C@H](C(=O)N[C@@H](Cc1c[nH]cn1)C(=O)N[C@@H](CCC(N)=O)C(=O)N[C@@H](CCC(N)=O)C(=O)N[C@@H](CC(=O)O)C(=O)N[C@@H](Cc1ccccc1)C(=O)N[C@H](C(=O)N[C@@H](CC(N)=O)C(=O)N[C@@H](Cc1c[nH]c2ccccc12)C(=O)N[C@@H](CC(C)C)C(=O)N[C@@H](CC(C)C)C(=O)N[C@@H](C)C(=O)N[C@@H](CCC(N)=O)C(=O)N[C@@H](CCCCN)C(N)=O)C(C)C)[C@@H](C)CC
B7: AT140 [hGIP(5-30)NH2-C16diacid/16] (peptide)
peptide: TFISDYSIAMDK(C16 diacid)IHQQDFVNWLLAQK-NH2
modifications: N-terminus assumed
SMILES: CC[C@H](C)[C@H](NC(=O)[C@H](CO)NC(=O)[C@H](Cc1ccc(O)cc1)NC(=O)[C@H](CC(=O)O)NC(=O)[C@H](CO)NC(=O)[C@@H](NC(=O)[C@H](Cc1ccccc1)NC(=O)[C@@H](N)[C@@H](C)O)[C@@H](C)CC)C(=O)N[C@@H](C)C(=O)N[C@@H](CCSC)C(=O)N[C@@H](CC(=O)O)C(=O)N[C@@H](CCCCNC(=O)CCCCCCCCCCCCCCC(=O)O)C(=O)N[C@H](C(=O)N[C@@H](Cc1c[nH]cn1)C(=O)N[C@@H](CCC(N)=O)C(=O)N[C@@H](CCC(N)=O)C(=O)N[C@@H](CC(=O)O)C(=O)N[C@@H](Cc1ccccc1)C(=O)N[C@H](C(=O)N[C@@H](CC(N)=O)C(=O)N[C@@H](Cc1c[nH]c2ccccc12)C(=O)N[C@@H](CC(C)C)C(=O)N[C@@H](CC(C)C)C(=O)N[C@@H](C)C(=O)N[C@@H](CCC(N)=O)C(=O)N[C@@H](CCCCN)C(N)=O)C(C)C)[C@@H](C)CC

Assays:
human GIP receptor [1] = target: T1, human GIP receptor (human, UniProt P48546 22-466); assay: 125I-hGIP competition binding, COS-7/hGIPR, 2% HSA;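 further: nonspecific binding defined as radioligand binding to untransfected cells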
T1 construct: whole, on cells; also called hGIPR
T1 sequence (looked up): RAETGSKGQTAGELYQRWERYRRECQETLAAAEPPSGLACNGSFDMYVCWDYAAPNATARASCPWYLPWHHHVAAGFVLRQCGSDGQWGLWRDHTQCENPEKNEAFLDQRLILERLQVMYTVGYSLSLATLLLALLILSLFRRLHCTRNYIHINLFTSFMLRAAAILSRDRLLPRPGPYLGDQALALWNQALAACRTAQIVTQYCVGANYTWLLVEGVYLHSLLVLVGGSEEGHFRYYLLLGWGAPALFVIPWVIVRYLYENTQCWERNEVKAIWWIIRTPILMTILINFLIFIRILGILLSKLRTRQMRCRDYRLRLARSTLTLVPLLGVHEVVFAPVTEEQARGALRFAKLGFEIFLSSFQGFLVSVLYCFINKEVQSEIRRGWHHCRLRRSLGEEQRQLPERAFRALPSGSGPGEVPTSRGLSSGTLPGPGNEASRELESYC
Protocol: (§1) After incubation, the cells were washed twice in ice-cold binding buffer (+/−2% HSA) and lysed using 200 mM NaOH with 1% SDS for 30 min. Nonspecific binding was determined as the binding of radioactive ligand to untransfected cells.

human GIP receptor [2] = target: T1, human GIP receptor; assay: 125I-hGIP competition binding, COS-7/hGIPR, 0.1% casein;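 further: nonspecific binding defined as radioligand binding measured on untransfected cells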
Protocol: as §1

human GIP receptor [3] = target: T1, human GIP receptor; assay: 125I-hGIP competition binding, COS-7 cells expressing hGIPR;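 further: nonspecific binding taken as radioligand bound by untransfected cells, binding buffer with or without 2% HSA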
Protocol: as §1

human GIP receptor [4] = target: T1, human GIP receptor; assay: IC50 with 2% HSA over IC50 with 0.1% casein, 125I-hGIP competition, COS-7/hGIPR
Protocol: as §1

Binder	IC50 (human GIP receptor [1]) [µM]	logIC50 (human GIP receptor [1]) [log M]	IC50 (human GIP receptor [2]) [µM]	logIC50 (human GIP receptor [2]) [log M]	IC50 (human GIP receptor [3]) [µM]	log IC50 (human GIP receptor [3]) [log M]	Fold change HSA (2%)/Casein (0.1%) (human GIP receptor [4]) [fold]
B1	0.321	-6.5	0.062	-7.2	0.0712	-7.1	5.2
B2	1.73	-5.8	0.11	-7	0.292	-6.5	15.7
B3	12.4	-4.9	1.9	-5.7	1.9	-5.7	6.5
B4	5.46	-5.3	0.489	-6.3	0.622	-6.2	11.2
B5	2.09	-5.7	0.407	-6.4	0.261	-6.6	5.1
B6	0.401	-6.4	0.153	-6.8	0.153	-6.8	2.6
B7	3.28	-5.5	2.16	-5.7	2.16	-5.7	1.5
